Data reported in patent US20140274782A1, “AFFINITY REAGENTS AND METHODS FOR DETECTION, PURIFICATION, AND PROTEOMIC ANALYSIS OF METHYLATED PROTEINS” (The Board of Trustees of the Leland Stanford Junior …, priority 2013, published 2014).

Legend:
G9a and GLP = target: T1, G9a and GLP (Homo sapiens, UniProt Q96KQ7+Q9H9B1); assay: Triple SILAC pull-down after UNC0638 treatment of 293T cells, DMSO/UNC0638 ratio of protein captured by 3×MBT; format: cell-based; design: endogenous in cells; host or cells: HEK 293T; conditions: for Relative to UNC0638 UNC Heavy / Relative to UNC0638 UNC Light: SILAC ratio DMSO/UNC0638 of protein pulled down with 3xMBT; for Relative to UNC0638 UNC Heavy: UNC0638 in heavy SILAC media; for Relative to UNC0638 UNC Light: UNC0638 in light SILAC media; for Relative to UNC0638 Average: average of UNC Light and UNC Heavy experiments;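 as to all read-outs here: mass spectrometry (Q-Exactive) SILAC quantitation, DMSO/UNC0638 ratio computed after subtracting 3×MBTD355N mutant pull-down background, only proteins with at least twofold 3×MBT over mutant signal considered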
T1 sequence (Q96KQ7 2-1210 limits assumed): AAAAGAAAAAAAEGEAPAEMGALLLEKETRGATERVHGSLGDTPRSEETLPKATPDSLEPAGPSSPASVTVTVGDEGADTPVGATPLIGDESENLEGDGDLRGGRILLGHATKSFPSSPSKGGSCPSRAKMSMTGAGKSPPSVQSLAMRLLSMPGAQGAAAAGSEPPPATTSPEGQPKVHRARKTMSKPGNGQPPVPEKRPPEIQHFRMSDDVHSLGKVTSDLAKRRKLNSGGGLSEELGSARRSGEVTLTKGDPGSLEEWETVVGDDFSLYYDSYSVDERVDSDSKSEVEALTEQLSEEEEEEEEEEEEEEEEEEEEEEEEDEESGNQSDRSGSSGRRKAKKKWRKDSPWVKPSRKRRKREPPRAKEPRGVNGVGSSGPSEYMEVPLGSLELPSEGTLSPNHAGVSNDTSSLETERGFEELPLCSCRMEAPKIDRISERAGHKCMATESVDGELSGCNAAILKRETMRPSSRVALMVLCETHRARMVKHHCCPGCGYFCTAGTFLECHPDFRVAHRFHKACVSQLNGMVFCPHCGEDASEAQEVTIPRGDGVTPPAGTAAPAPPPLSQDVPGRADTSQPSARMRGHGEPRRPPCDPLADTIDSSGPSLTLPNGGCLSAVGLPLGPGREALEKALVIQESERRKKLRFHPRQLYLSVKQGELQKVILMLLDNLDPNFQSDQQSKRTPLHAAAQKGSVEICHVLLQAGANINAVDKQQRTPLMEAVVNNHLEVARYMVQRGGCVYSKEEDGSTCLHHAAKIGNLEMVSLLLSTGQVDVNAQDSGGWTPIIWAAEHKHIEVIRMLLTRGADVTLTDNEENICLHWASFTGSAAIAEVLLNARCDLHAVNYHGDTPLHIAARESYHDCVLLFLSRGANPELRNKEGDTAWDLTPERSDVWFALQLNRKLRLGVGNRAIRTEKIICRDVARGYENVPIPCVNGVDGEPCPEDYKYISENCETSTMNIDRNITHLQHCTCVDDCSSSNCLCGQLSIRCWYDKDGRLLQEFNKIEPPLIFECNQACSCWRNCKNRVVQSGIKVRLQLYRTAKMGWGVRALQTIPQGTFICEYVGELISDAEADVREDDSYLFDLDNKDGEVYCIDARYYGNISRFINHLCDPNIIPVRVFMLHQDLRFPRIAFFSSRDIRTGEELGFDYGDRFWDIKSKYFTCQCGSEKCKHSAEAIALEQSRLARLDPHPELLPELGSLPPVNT
T1 sequence (Q9H9B1 2-1298 limits assumed): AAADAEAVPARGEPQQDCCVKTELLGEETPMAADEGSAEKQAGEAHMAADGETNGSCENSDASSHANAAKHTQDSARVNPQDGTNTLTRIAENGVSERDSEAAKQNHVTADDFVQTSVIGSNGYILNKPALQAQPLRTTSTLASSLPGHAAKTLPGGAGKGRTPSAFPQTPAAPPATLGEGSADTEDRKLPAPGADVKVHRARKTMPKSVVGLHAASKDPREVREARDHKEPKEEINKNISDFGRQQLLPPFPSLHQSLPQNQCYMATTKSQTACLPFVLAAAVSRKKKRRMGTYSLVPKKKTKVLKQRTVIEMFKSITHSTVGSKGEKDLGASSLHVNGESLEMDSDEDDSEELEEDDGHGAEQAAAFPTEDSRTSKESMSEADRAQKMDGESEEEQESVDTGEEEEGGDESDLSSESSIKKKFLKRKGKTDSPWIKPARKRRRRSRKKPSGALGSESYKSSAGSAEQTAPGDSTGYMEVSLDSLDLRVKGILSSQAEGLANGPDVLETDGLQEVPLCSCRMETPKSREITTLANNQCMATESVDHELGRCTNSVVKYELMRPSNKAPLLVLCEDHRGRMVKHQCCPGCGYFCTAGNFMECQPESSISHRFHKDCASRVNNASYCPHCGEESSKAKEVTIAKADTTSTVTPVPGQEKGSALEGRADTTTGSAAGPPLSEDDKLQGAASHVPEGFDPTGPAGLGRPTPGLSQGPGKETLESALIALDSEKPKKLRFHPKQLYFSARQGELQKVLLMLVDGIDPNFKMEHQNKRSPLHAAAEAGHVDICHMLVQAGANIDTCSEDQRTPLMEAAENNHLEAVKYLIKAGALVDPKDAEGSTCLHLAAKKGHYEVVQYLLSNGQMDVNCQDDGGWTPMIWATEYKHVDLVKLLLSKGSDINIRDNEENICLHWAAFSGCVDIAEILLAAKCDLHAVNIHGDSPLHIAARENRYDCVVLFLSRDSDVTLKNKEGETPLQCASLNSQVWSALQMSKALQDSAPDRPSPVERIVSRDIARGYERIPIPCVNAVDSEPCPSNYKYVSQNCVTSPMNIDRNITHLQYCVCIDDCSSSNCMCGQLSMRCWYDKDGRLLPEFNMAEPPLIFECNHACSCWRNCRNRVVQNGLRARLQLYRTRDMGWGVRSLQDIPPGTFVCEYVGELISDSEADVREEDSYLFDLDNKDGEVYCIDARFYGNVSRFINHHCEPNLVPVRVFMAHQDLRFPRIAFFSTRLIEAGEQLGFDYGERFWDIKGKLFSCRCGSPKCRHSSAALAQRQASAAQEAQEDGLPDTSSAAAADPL

3×MBT domain of L3MBTL1 = assay: Triple SILAC pull-down, 3xMBT/3xMBTD355N ratio (cytoplasmic, nuclear and chromatin fractions of 293T cells); format: binding, human; conditions: SILAC ratio, pull-down 3xMBT vs 3xMBTD355N; for 3xMBT/D355N UNC Heavy: experiment with UNC0638 in heavy SILAC media; for 3xMBT/D355N UNC Light: experiment with UNC0638 in light SILAC media;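 as to all read-outs here: proteins quantified with MaxQuant, requiring at least two unique peptides and quantification in both label directions, normalized to the mean of proteins from a digested loading control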

B1: CAPRIN1 (protein, UniProt Q14444 2-709, looked up)
Caprin-1: PSATSHSGSGSKSSGPPPPSGSSGSEAAAGAGAAAPASQHPATGTGAVQTEAMKQILGVIDKKLRNLEKKKGKLDDYQERMNKGERLNQDQLDAVSKYQEVTNNLEFAKELQRSFMALSQDIQKTIKKTARREQLMREEAEQKRLKTVLELQYVLDKLGDDEVRTDLKQGLNGVPILSEEELSLLDEFYKLVDPERDMSLRLNEQYEHASIHLWDLLEGKEKPVCGTTYKVLKEIVERVFQSNYFDSTHNHQNGLCEEEEAASAPAVEDQVPEAEPEPAEEYTEQSEVESTEYVNRQFMAETQFTSGEKEQVDEWTVETVEVVNSLQQQPQAASPSVPEPHSLTPVAQADPLVRRQRVQDLMAQMQGPYNFIQDSMLDFENQTLDPAIVSAQPMNPTQNMDMPQLVCPPVHSESRLAQPNQVPVQPEATQVPLVSSTSEGYTASQPLYQPSHATEQRPQKEPIDQIQATISLNTDQTTASSSLPAASQPQVFQAGTSKPLHSSGINVNAAPFQSMQTVFNMNAPVPPVNEPETLKQQNQYQASYNQSFSSQPHQVEQTELQQEQLQTVVGTYHGSPDQSHQVTGNHQQPPQQNTGFPRSNQPYYNSRGVSRGGSRGARGLMNGYRGPANGFRGGYDGYRPSFSNTPNSGYTQSQFSAPRDYSGYQRDGYQQNFKRGSGQSGPRGAPRGRGGPPRPNRGMPQMNTQQVN
Relative to UNC0638 UNC Heavy (G9a and GLP): −1.08 log base 2
Relative to UNC0638 UNC Light (G9a and GLP): 1.34 log base 2
Relative to UNC0638 Average (G9a and GLP): 0.13 log base 2
3xMBT/D355N UNC Heavy (3×MBT domain of L3MBTL1): 2.45 log base 2
3xMBT/D355N UNC Light (3×MBT domain of L3MBTL1): 4.36 log base 2

B2: LRWD1 (protein, UniProt Q9UFC0 1-647, looked up)
Leucine-rich repeat and WD …: MGPLSARLLMQRGRPKSDRLGKIRSLDLSGLELLSEHLDPKLLCRLTQLQELDLSNNHLETLPDNLGLSHLRVLRCANNQLGDVTALCQFPKLEELSLEGNPFLTVNDNLKVSFLLPTLRKVNGKDASSTYSQVENLNRELTSRVTAHWEKFMATLGPEEEAEKAQADFVKSAVRDVRYGPESLSEFTQWRVRMISEELVAASRTQVQKANSPEKPPEAGAAHKPRARLAALKRPDDVPLSLSPSKRACASPSAQVEGSPVAGSDGSQPAVKLEPLHFLQCHSKNNSPQDLETQLWACAFEPAWEEGATSQTVATCGGEAVCVIDCQTGIVLHKYKAPGEEFFSVAWTALMVVTQAGHKKRWSVLAAAGLRGLVRLLHVRAGFCCGVIRAHKKAIATLCFSPAHETHLFTASYDKRIILWDIGVPNQDYEFQASQLLTLDTTSIPLRLCPVASCPDARLLAGCEGGCCCWDVRLDQPQKRRVCEVEFVFSEGSEASGRRVDGLAFVNEDIVASKGSGLGTICLWSWRQTWGGRGSQSTVAVVVLARLQWSSTELAYFSLSACPDKGIVLCGDEEGNVWLYDVSNILKQPPLLPAALQAPTQILKWPQPWALGQVVTKTMVNTVVANASFTYLTALTDSNIVAIWGRM
Relative to UNC0638 UNC Heavy (G9a and GLP): 0.01 log base 2
Relative to UNC0638 UNC Light (G9a and GLP): 0.25 log base 2
Relative to UNC0638 Average (G9a and GLP): 0.13 log base 2
3xMBT/D355N UNC Heavy (3×MBT domain of L3MBTL1): 2.59 log base 2
3xMBT/D355N UNC Light (3×MBT domain of L3MBTL1): 2.64 log base 2

B3: SRBD1 (protein, UniProt Q8N5C6 1-995, looked up)
S1 RNA-binding …: MSSLPRRAKVQVQDVVLKDEFSSFSELSSASEEDDKEDSAWEPQKKVPRSRKQPPPKESKPKRMPRVKKNAPQISDGSEVVVVKEELNSSVAIADTALEDRKNKLDTVQTLKTAKTKQKCAAQPHTVRRTKKLKVEEETSKASNLEGESNSSETPSTSTVWGGTCKKEENDDDFTFGQSALKKIKTETYPQGQPVKFPANANSTKEEVEMNWDMVQVLSERTNIEPWVCANIIRLFNDDNTIPFIIRYRKELINNLDADSLREVQQTLEELRAVAKKVHSTIQKIKKEGKMSECLLKAMLNCKTFEELEHVSAPYKTGSKGTKAQRARQLGLEGAARALLEKPGELSLLSYIRPDVKGLSTLQDIEIGVQHILADMIAKDKDTLDFIRNLCQKRHVCIQSSLAKVSSKKVNEKDVDKFLLYQHFSCNIRNIHHHQILAINRGENLKVLTVKVNISDGVKDEFCRWCIQNRWRPRSFARPELMKILYNSLNDSFKRLIYPLLCREFRAKLTSDAEKESVMMFGRNLRQLLLTSPVPGRTLMGVDPGYKHGCKLAIISPTSQILHTDVVYLHCGQGFREAEKIKTLLLNFNCSTVVIGNGTACRETEAYFADLIMKNYFAPLDVVYCIVSEAGASIYSVSPEANKEMPGLDPNLRSAVSIARRVQDPLAELVKIEPKHIGVGMYQHDVSQTLLKATLDSVVEECVSFVGVDINICSEVLLRHIAGLNANRAKNIIEWREKNGPFINREQLKKVKGLGPKSFQQCAGFIRINQDYIRTFCSQQTETSGQIQGVAVTSSADVEVTNEKQGKKKSKTAVNVLLKPNPLDQTCIHPESYDIAMRFLSSIGGTLYEVGKPEMQQKINSFLEKEGMEKIAERLQTTVHTLQVIIDGLSQPESFDFRTDFDKPDFKRSIVCLEDLQIGTVLTGKVENATLFGIFVDIGVGKSGLIPIRNVTEAKLSKTKKRRSLGLGPGERVEVQVLNIDIPRSRITLDLIRVL
Relative to UNC0638 UNC Heavy (G9a and GLP): −0.13 log base 2
Relative to UNC0638 UNC Light (G9a and GLP): 0.37 log base 2
Relative to UNC0638 Average (G9a and GLP): 0.12 log base 2
3xMBT/D355N UNC Heavy (3×MBT domain of L3MBTL1): 1.02 log base 2
3xMBT/D355N UNC Light (3×MBT domain of L3MBTL1): 1.29 log base 2

B4: PRPF19 (protein, UniProt Q9UMS4 2-504, looked up)
Pre-mRNA-processing factor 19: SLICSISNEVPEHPCVSPVSNHVYERRLIEKYIAENGTDPINNQPLSEEQLIDIKVAHPIRPKPPSATSIPAILKALQDEWDAVMLHSFTLRQQLQTTRQELSHALYQHDAACRVIARLTKEVTAAREALATLKPQAGLIVPQAVPSSQPSVVGAGEPMDLGELVGMTPEIIQKLQDKATVLTTERKKRGKTVPEELVKPEELSKYRQVASHVGLHSASIPGILALDLCPSDTNKILTGGADKNVVVFDKSSEQILATLKGHTKKVTSVVFHPSQDLVFSASPDATIRIWSVPNASCVQVVRAHESAVTGLSLHATGDYLLSSSDDQYWAFSDIQTGRVLTKVTDETSGCSLTCAQFHPDGLIFGTGTMDSQIKIWDLKERTNVANFPGHSGPITSIAFSENGYYLATAADDSSVKLWDLRKLKNFKTLQLDNNFEVKSLIFDQSGTYLALGGTDVQIYICKQWTEILHFTEHSGLTTGVAFGHHAKFIASTGMDRSLKFYSL
Relative to UNC0638 UNC Heavy (G9a and GLP): 0.39 log base 2
Relative to UNC0638 UNC Light (G9a and GLP): −0.15 log base 2
Relative to UNC0638 Average (G9a and GLP): 0.12 log base 2
3xMBT/D355N UNC Heavy (3×MBT domain of L3MBTL1): 2.05 log base 2
3xMBT/D355N UNC Light (3×MBT domain of L3MBTL1): 1.97 log base 2
